Changes are numbered by the printed parent chain. Names may count otherwise. Each block holds one binder with its values, some of them ahead of it.
Experiments:
Settings in all cases: remark: other sources report otherwise
[1] = molecular target: T1, Human TROP2 ECD (31-274 AA), biotinylated (human), P09758; assay: ELISA, biotinylated TROP2 ECD on neutravidin plate, Fab titrated
T1 chain: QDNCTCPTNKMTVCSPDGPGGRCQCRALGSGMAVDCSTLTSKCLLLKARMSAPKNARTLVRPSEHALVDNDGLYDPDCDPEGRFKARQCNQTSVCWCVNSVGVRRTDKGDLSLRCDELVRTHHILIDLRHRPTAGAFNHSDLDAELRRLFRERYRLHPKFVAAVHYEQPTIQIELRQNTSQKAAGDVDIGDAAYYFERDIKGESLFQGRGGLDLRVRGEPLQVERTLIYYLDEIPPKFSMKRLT

[2] = molecular target: T1, Human TROP2 ECD (31-274 AA), …; assay: ELISA: biotinylated TROP2 captured on neutravidin plate, Fab titrated, HRP secondary antibody
[3] = molecular target: T1, Human TROP2 ECD (31-274 AA), …; assay: ELISA, biotinylated TROP2 ECD on neutravidin plate (BLI cell of the same column: low binding); ELISA: no half-maximal signal up to 1000 nM Fab

EC50 [1]: > 1 µM | EC50 [2]: > 1 µM | EC50 [3]: > 1 µM
B1: TBD-4 (anti-TROP2 Fab, LC H91A) (Fab)
light: DIQLTQSPSSLSASVGDRVSITCKASQDVSIAVAWYQQKPGKAPKLLIYSASYRYTGVPDRFSGSGSGTDFTLTISSLQPEDFAVYYCQQAYITPLTFGAGTKVEIKRTVAAPSVFIFPPSDEQLKSGTASVVCLLNNFYPREAKVQWKVDNALQSGNSQESVTEQDSKDSTYSLSSTLTLSKADYEKHKVYACEVTHQGLSSPVTKSFNRGEC
heavy: QVQLQQSGSELKKPGASVKVSCKASGYTFTNYGMNWVKQAPGQGLKWMGWINTYTGEPTYTDDFKGRFAFSLDTSVSTAYLQISSLKADDTAVYFCARGGFGSSYWYFDVWGQGSLVTVSSASTKGPSVFPLAPSSKSTSGGTAALGCLVKDYFPEPVTVSWNSGALTSGVHTFPAVLQSSGLYSLSSVVTVPSSSLGTQTYICNVNHKPSNTKVDKKVEPKSC
modifications: here or on the partner: biotinylated (site not stated)

EC50 [1]: > 1 µM | EC50 [2]: > 1 µM | EC50 [3]: > 1 µM
B2: TBD-5 (anti-TROP2 Fab, LC Y92A) (Fab)
light: B1 light with A91H, Y92A
heavy: B1 heavy
modifications: here or on the partner: biotinylated (site not stated)
